The source of these data is patent US20090297535A1 (Ablynx, published 2009).

Where two headings read alike, the source gives them in different places.

In assay [1] the target is T1, recombinant human IL6 (human, UniProt P05231 30-212). The assay is described as follows: cell-based or functional assay.
For assay [2], the target named is T1, recombinant human IL6. The assay is described as follows: SPR, Biacore 3000; IL6 amine-coupled on CM5 chip, periplasmic extract injected. On the procedure:
Off-rate analysis of Nanobodies binding to IL6 was done by surface plasmon resonance on a Biacore 3000 instrument. Recombinant human IL6 was covalently bound to a CM5 sensor chip via amine coupling at a density of ˜500 RU. Remaining reactive groups were inactivated. Periplasmic extracts prepared from E. coli cells expressing anti-IL6 Nanobodies were diluted 10 or 15-fold and injected for 4 min to allow for binding to IL6 immobilized on the chip. Buffer without Nanobody was sent over the chip for 30 min to allow for spontaneous dissociation of bound Nanobody. The dissociation phase was used to calculate the koff values for each individual Nanobody (table B-1).

For assay [3], the target named is T1, recombinant human IL6. The assay is described as follows: cell-based or functional assay. This is another data set of the same source.

B1: PMP10A6 (VHH)
VHH: QVQLVESGGGLVQAGGSLRLSCASSGRTFSSYVMGWFRQTPGKEREFVSTINWSGSNGYYADSVKGRFTISRDNAKNTVYLQMNNLKPEDTAVYYCAASAGGFLVPRVGQGYDYWGQGTQVTVSS
notes: Monovalent Nanobody
For B1, the “IC50, inhibition of proliferation of the murine hybridoma cell line B9 (B9 assay, cell proliferation normalized)” value with recombinant human IL6 [1] is 332 pM. The dissociation rate constant (koff) (usually a measure of how fast the partners let go of each other) in the assay with recombinant human IL6 [2] is 0.00104 s⁻¹.

B2: PMP17C4 (VHH)
VHH: AVQLVDSGGGLVQAGDSLRLSCAASGRTFSNYAMAWFRQAPGKEREFVAVISYAGGRTYYADSVKGRFTISRDNAKNTVYLQMNSLKPEDTAVYYCAAVDSPLIATHPRGYDYWGQGTQVTVSS
notes: Monovalent Nanobody
B2: the “IC50, inhibition of proliferation of the murine hybridoma cell line B9 (B9 assay, cell proliferation normalized)” value in the assay with recombinant human IL6 [1] was 64 pM. In addition, the koff with recombinant human IL6 [2] came to 0.00137 s⁻¹.

B3: PMP17G7 (VHH)
VHH: QVKLEESGGGLVQAGGSLRLSCAASGGTFSSYPMGWFRQAPGKEREFVTGISQSGGSTAYSDSVKGRFTISRENAKNTVYLQMNSLKPEDTAVYYCAARGRTIALRNYAYTTEVGYDDWGQGTQVTVSS
notes: Monovalent Nanobody
As to B3, in the assay with recombinant human IL6 [2], the koff worked out at 0.000669 s⁻¹.

B4: PMP17B11 (VHH)
VHH: QVQLVESGGGLVQAGGSLRLSCAASGPTFSTYAMGWFRQAPGKEREFVAAISWSGANTYYADSVKGRFTISRDNAKNTVYLRMNSLKPEDTAAYYCAASAIIEGFQDSIVIFSEAGYDYWGQGTQVTVSS
Turning to B4, the “IC50, inhibition of proliferation of the murine hybridoma cell line B9 (B9 assay, cell proliferation normalized)” value with recombinant human IL6 [1] turned out to be 702 pM. The koff in the assay with recombinant human IL6 [2] stood at 0.00133 s⁻¹.

B5: PMP21E7 (VHH)
VHH: AVQLVESGGGLVQAGGSLRLSSVVSGGTFSSYPIAWFRQPPGKEREFVAAISWRGGNTYYADSVKGRFTISRDNAKNTVYLQMNSLKPEDTAVYYSAAERAGVLLTKVPEGYDYWGQGTQVTVSS
notes: Monovalent Nanobody
Turning to B5, the “IC50, inhibition of proliferation of the murine hybridoma cell line B9 (B9 assay, cell proliferation normalized)” value with recombinant human IL6 [1] came out at 50 pM. In the assay with recombinant human IL6 [2], the koff was 0.000772 s⁻¹.

B6: PMP21H1 (VHH)
VHH: QVQLVESGGGLVQTGGSLRLSCAASGSTFSKHHATGWFRQAPGKEREFVAALNWSGGNTYYTDSVKGRFTISRDNAQNTVYLQMNSLKPEDTAVYYCAAGSYVFYFTVRDQYDYWGQGTQVTVSS
notes: Monovalent Nanobody
As to B6, in the assay with recombinant human IL6 [1], the “IC50, inhibition of proliferation of the murine hybridoma cell line B9 (B9 assay, cell proliferation normalized)” value came out at 2580 pM. Also, in the assay with recombinant human IL6 [2], the off-rate (koff) worked out at 0.00124 s⁻¹.

B7: PMP13F12 (VHH)
VHH: AVQLVDSGGGLVQAGGSLRLSCAASGRTFSSSPMGWFRQAPGKEREFVAAISGRSGNTYYADSVKGRFTISRDNAKNTVYLQMNSLKPEDTAVYYCAAERVGLLLTVVAEGYDYWGQGTQVTVSS
notes: Monovalent Nanobody
Consider B7, for which, in the assay with recombinant human IL6 [1], the “IC50, inhibition of proliferation of the murine hybridoma cell line B9 (B9 assay, cell proliferation normalized)” value was 8 pM. The koff with recombinant human IL6 [2] came to 3.66e-05 s⁻¹.

B8: PMP10C4 (VHH)
VHH: AVQLVDSGGGLVQAGGSLRLSCAASGRSFSNYHMVWFRQAPGKEREFVAAASGSTSSTYYADSVKGRFTISRDNAKNTVYLQMNSLKPEDTAVYYCAAVAGLLLPRVAEGMDYWGKGTLVTVSS
notes: Monovalent Nanobody
In the case of B8, the “IC50, inhibition of proliferation of the murine hybridoma cell line B9 (B9 assay, cell proliferation normalized)” value in the assay with recombinant human IL6 [1] is 961 pM. Further, the off-rate (koff) with recombinant human IL6 [2] amounted to 0.00082 s⁻¹.

B9: PMP6B12 (VHH)
VHH: AVQLVESGGGLVQPGGSLRLSCAASGFTLAYYAIGWFRQAPGKEREGVSCISSSVGTTYYSDSVKGRFTISRDNAKNTVYLQMNSLKPEDTAVYYCVRSSWFDCGVQGRDLGNEYDYRGQGTQVTVSS
notes: Monovalent Nanobody
Regarding B9, the “IC50, inhibition of proliferation of the murine hybridoma cell line B9 (B9 assay, cell proliferation normalized)” value in the assay with recombinant human IL6 [3] turned out to be 28 pM. Also, in the assay with recombinant human IL6 [2], the off-rate constant (koff) came to 0.00027 s⁻¹.

B10: PMP21B4 (VHH)
VHH: QVQLVESGGGLVQAGDSLRVACAASGRTFSIDAMAWFRQAPGKEREFVSTMNWSTGATYYADSVKGRFTSSRDNAKSTSYLQMNSLKPEDTAVYYCAAARGLLIATDARGYDYWGQGTQVTVSS
notes: Monovalent Nanobody
On to B10, for which, in the assay with recombinant human IL6 [1], the “IC50, inhibition of proliferation of the murine hybridoma cell line B9 (B9 assay, cell proliferation normalized)” value worked out at 1860 pM. Also, the off-rate constant (koff) in the assay with recombinant human IL6 [2] was found to be 0.000658 s⁻¹.
